In US20170056486A1 one finds peptide exchange yield data, which are given here for 27 molecules.

Experiment [1] has as its target HLA-A*24 (human). The experiment is described as follows: UV-exchange ELISA (anti-b2m); yield >=75%.
In experiment [2] the target is HLA-A*24 (human). Description: UV-exchange ELISA (anti-b2m); yield 20%-49%.

Turning to SYQVIFQHF, the peptide exchange yield with HLA-A*24 (human) [1] was above 75%.

As for SYGTILSHI, the peptide exchange yield with HLA-A*24 (human) [1] is above 75%.

As to DYVGFTLKI, the peptide exchange yield in the experiment with HLA-A*24 (human) [2] lay within 20 to 49%.

VYTGIDHHW registered a peptide exchange yield in the experiment with HLA-A*24 (human) [1] above 75%.

VYNAVSTSF had a peptide exchange yield with HLA-A*24 (human) [2] of 20 to 49%.

The molecule KYTSYILAF had a peptide exchange yield with HLA-A*24 (human) [2] of 20 to 49%.

Turning to TYIDTRTVF, the peptide exchange yield with HLA-A*24 (human) [1] was above 75%.

The molecule TYNPNLQDKL returned a peptide exchange yield with HLA-A*24 (human) [1] above 75%.

FYPQIINTF returned a peptide exchange yield with HLA-A*24 (human) [1] above 75%.

QFITSTNTF came in with a peptide exchange yield with HLA-A*24 (human) [1] above 75%.

Regarding AYKSEVVYF, the peptide exchange yield with HLA-A*24 (human) [1] is above 75%.

The molecule KYGDFKLLEF came in with a peptide exchange yield in the experiment with HLA-A*24 (human) [1] above 75%.

KFDDVTMLF showed a peptide exchange yield with HLA-A*24 (human) [1] above 75%.

Consider NYMPGQLTI, for which the peptide exchange yield with HLA-A*24 (human) [1] was above 75%.

On to QYLDVLHAL, for which, in the experiment with HLA-A*24 (human) [1], the peptide exchange yield is above 75%.

Molecule FFHEGQYVF registered a peptide exchange yield in the experiment with HLA-A*24 (human) [1] above 75%.

Regarding NYENKQYLF, in the experiment with HLA-A*24 (human) [1], the peptide exchange yield was above 75%.

As for VFIDHPVHL, the peptide exchange yield with HLA-A*24 (human) [1] was above 75%.

In the experiment with HLA-A*24 (human) [1], KYSDVKNLI showed a peptide exchange yield above 75%.

VFIAQGYTL displayed a peptide exchange yield with HLA-A*24 (human) [1] above 75%.

The molecule KFFDDLGDELLF yielded a peptide exchange yield in the experiment with HLA-A*24 (human) [2] of 20 to 49%.

With VYTPVLEHL, the peptide exchange yield in the experiment with HLA-A*24 (human) [2] was 20 to 49%.

Molecule SYAPPSEDLF yielded a peptide exchange yield with HLA-A*24 (human) [2] of 20 to 49%.

In the experiment with HLA-A*24 (human) [1], VYPHFSTTNLI gave a peptide exchange yield above 75%.

In turn, EYLQNLNHI displayed a peptide exchange yield with HLA-A*24 (human) [1] above 75%.

In the case of KYTHFIQSF, the peptide exchange yield in the experiment with HLA-A*24 (human) [1] is above 75%.

In the experiment with HLA-A*24 (human) [1], NYGVLHVTF registered a peptide exchange yield above 75%.
